Consider two molecules from US20230407367, “INTRINSICALLY DISORDERED PROTEINS FOR EXTRACTION OF NUCLEIC ACIDS” (published 2023).

One data set concerns the target T1, E3 ELP [(VPGXG)10-GKG]8 (synthetic construct).
T1 chain: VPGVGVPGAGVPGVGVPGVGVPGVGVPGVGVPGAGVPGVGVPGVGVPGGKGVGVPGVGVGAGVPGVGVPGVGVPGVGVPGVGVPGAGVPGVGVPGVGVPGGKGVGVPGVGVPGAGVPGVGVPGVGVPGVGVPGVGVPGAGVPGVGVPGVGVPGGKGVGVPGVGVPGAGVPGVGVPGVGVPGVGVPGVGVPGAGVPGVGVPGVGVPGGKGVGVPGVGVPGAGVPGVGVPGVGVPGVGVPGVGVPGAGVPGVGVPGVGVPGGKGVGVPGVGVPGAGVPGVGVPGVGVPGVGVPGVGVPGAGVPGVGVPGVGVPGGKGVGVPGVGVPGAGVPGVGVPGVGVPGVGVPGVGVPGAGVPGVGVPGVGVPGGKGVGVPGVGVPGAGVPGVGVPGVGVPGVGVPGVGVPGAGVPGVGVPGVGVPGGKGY
Put plainly: coacervate partitioning at 55 C, no added NaCl, 100 mM sodium phosphate pH 7.0; 100 mM NaCl leaves much more DNA in dilute phase. The note with it: label: 5'-Cy3. The text has this:
Across all t=0 samples at room temperature (T<Tt) no E3 condensates are observed (FIG. 3, A1 and D1) and all solution components are miscible and evenly distributed throughout the droplet volume (FIG. 3, A2, D2, A3 and D3). The incipient stages of thermally triggered E3 phase transition occur simultaneously throughout droplet volumes, corroborating demixing through spinodal decomposition for both +NaCl and −NaCl samples (FIG. 3, B1 and E1). […] Note that the recruitment of ssDNA-Cy3 into the E3 rich condensates is E3 concentration dependent. By contrast, addition of NaCl results in electrostatic shielding, partitioning more ssDNA-Cy3 in the solvent-rich phase (FIG. 3, B2 and C2). The combined E3 phase behavior and ssDNA-Cy3 partitioning for −NaCl and +NaCl is further evidenced by inspection of the merged brightfield and fluorescence microscopy images of FIG. 3, panels A3-F3.
To image the process of temperature-mediated E3 coacervation and interaction with DNA-Cy3, an Olympus IX83 fluorescence microscope (Olympus Life Science Technology Division, Center Valley, PA) was equipped with a Physitemp cooling and heating stage (TS4-MP/ER/PTU, Clifton, NJ) fitted with a temperature controller. Microfluidic droplets were generated using previously described methods and droplet generator. […]

A further data set concerns the target T2, H-24 His-ELP (synthetic construct).
T2 chain: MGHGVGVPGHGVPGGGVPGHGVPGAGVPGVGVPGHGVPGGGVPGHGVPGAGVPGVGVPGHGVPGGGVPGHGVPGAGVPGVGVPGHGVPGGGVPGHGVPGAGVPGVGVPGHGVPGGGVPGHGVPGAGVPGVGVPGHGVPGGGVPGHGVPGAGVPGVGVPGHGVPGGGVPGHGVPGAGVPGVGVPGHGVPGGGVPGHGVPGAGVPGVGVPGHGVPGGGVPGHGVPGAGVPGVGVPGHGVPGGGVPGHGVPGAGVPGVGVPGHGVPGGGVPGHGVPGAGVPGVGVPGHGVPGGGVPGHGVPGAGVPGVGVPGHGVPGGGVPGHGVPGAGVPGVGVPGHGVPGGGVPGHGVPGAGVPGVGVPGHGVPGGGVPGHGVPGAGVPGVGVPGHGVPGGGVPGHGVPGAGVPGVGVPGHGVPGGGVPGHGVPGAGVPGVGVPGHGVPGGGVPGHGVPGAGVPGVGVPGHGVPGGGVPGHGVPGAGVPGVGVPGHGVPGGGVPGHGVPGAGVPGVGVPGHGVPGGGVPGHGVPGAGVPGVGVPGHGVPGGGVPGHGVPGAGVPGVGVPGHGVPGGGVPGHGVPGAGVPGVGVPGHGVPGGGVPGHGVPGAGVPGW
In words: EMSA; pH 6, room temperature, 0.1-100 uM. The method, then:
(§1) According to the prediction of His-ELP charge as a function of pH (FIG. 1l A), at pH 6, H-20 (SEQ. ID. NO. 8) is expected to have a charge of ≈+33 and H-24 (SEQ. ID. NO. 9) is expected to have a greater charge of ≈+39 as it has more histidines in its sequence. The primary association between His-ELPs and NAs is via electrostatic interactions; thus, the protein with greater charge is expected to have a more robust binding activity. Gel retardation assays were performed to analyze the binding activity of the His-ELPs (and another ELP with 8 cationic lysine charges, E3) with tRNA and ssDNA as a function of protein concentration at pH 6 (FIG. 12). Binding and gel electrophoresis were conducted at room temperature, below the Tt of each of the proteins, and for both tRNA and ssDNA, the degree of NA migration retardation was dependent on protein concentration (see FIG. 4).
(In EMSA bound probe runs differently from free probe, usually more slowly.)

The next data set addresses T3, H-20 His-ELP (synthetic construct).
T3 chain: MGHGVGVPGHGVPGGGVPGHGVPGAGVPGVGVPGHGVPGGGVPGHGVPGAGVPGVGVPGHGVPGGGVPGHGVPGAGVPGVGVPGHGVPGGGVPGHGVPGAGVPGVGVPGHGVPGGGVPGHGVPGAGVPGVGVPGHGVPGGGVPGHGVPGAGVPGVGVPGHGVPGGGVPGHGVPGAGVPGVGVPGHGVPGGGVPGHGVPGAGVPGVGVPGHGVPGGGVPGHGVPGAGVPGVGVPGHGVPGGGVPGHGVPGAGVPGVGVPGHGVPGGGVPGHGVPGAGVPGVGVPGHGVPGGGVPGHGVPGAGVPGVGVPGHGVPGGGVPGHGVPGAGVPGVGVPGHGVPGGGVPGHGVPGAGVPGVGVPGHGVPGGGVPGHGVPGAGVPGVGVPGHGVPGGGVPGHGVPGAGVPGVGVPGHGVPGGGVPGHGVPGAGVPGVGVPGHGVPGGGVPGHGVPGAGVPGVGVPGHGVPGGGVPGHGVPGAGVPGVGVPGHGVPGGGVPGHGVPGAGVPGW
Put plainly: EMSA; pH 6, room temperature, 0.1-100 uM; weaker than H-24. The method, then: as §1

In the case of TTTTTCCTAGAGAGTAGAGCCTGCTTCG (ssDNA) [Cy3-ssDNA (DNA-Cy3)], the binding result with E3 ELP [(VPGXG)10-GKG]8 is given as “binds”. For the molecule TTTTTCCTAGAGAGTAGAGCCTGCTTCG (ssDNA) [ssDNA 28 nt], the binding result in the data set with H-24 His-ELP and with H-20 His-ELP was “binds” each time.
